Values belong to the molecule of their own block, whether it stands above or below them.
What was measured:
[1] = target: T1, IFN response factor 4 (IRF4), endogenous (human (endogenous in MM1.S and primary …, UniProt Q15306 1-451)); test: proximity ligation assay (PLA); conditions: MM1.S cells transfected with OE.HDAC11mut, read off a plot
T1 construct: IRF4, endogenous in human multiple myeloma cells (MM1.S line and primary patient MM cells), detected or precipitated by anti-IRF4; source: endogenous, MM1.S cells (fixed cells and lysate); endogenous, patient-derived primary MM cells
T1 sequence (looked up): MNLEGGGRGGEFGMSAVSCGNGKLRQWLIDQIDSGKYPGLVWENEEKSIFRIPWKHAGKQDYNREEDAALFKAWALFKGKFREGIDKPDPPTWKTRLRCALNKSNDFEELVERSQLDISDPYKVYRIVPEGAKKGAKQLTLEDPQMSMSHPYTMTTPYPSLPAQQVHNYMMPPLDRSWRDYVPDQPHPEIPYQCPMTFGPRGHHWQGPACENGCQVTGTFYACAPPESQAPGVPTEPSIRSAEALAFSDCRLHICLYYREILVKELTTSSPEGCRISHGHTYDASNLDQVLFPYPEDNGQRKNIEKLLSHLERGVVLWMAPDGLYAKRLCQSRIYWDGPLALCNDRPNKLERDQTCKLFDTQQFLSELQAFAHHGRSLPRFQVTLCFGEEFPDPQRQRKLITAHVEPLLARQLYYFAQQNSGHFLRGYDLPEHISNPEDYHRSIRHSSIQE

[2] = target: T1, IFN response factor 4 (IRF4), endogenous; test: proximity ligation; primary MM cells from patient samples, cultured with the patient's serum, untreated or with LPS (5 μg/mL, 24 hours); conditions: partners not purified

- response (# Foci Per Cell) ([1]; cytoplasmic foci, parent: est. 17): 18
- response (# Foci Per Cell) ([1]; nuclear foci, parent: est. 105): 13
Molecule: HA-tagged WT HDAC11 (HDAC11^wt.HA) (from UniProt Q96DB2) HDAC11mut

- fold increase of nuclear PLA complexes with LPS against untreated cells [2]: 4.5 fold
B1: histone/protein deacetylase 11 (HDAC11), endogenous (enzyme, UniProt Q96DB2 1-347, looked up)
chain: MLHTTQLYQHVPETRWPIVYSPRYNITFMGLEKLHPFDAGKWGKVINFLKEEKLLSDSMLVEAREASEEDLLVVHTRRYLNELKWSFAVATITEIPPVIFLPNFLVQRKVLRPLRTQTGGTIMAGKLAVERGWAINVGGGFHHCSSDRGGGFCAYADITLAIKFLFERVEGISRATIIDLDAHQGNGHERDFMDDKRVYIMDVYNRHIYPGDRFAKQAIRRKVELEWGTEDDEYLDKVERNIKKSLQEHLPDVVVYNAGTDILEGDRLGGLSISPAGIVKRDELVFRMVRGRRVPILMVTSGGYQKRTARIIADSILNLFGLGLIGPESPSVSAQNSDTPLLPPAVP
notes: HDAC11, endogenous in human multiple myeloma cells (MM1.S line and primary patient MM cells), detected by mouse anti-HDAC11 in PLA; source: endogenous, MM1.S cells; endogenous, patient-derived primary MM cells
